Test results as given in publication PMC6167383, “Regulatory control of DNA end resection by Sae2 phosphorylation” (Nature Communications, 2018).

T1: pSae2 λ (dephosphorylated) (Saccharomyces cerevisiae, UniProt P46946 1-345)
T1 sequence: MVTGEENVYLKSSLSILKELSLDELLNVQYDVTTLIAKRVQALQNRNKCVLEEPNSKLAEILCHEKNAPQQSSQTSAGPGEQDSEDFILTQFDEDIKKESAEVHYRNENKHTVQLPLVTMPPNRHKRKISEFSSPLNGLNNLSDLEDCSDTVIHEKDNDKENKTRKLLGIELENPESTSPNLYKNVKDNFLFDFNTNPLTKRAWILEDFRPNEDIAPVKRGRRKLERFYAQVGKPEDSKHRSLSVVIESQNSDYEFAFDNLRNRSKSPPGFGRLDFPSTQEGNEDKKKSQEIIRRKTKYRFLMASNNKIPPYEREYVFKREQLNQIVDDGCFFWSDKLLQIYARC


Experiments:
[1] = target: the molecule itself; assay: SEC; Superose 6 10/300 GL, 50 mM Tris-HCl pH 7.5, 150 mM NaCl, 10% glycerol, 0.5 mM β-mercaptoethanol, 4 °C; ~75 μg of the Sae2 variant, mock-treated or treated with λ phosphatase for 90 min at 30 °C before loading; absorbance at 215 nm
[2] = target: T2, S. cerevisiae Mre11-Rad50-Xrs2 complex (S. cerevisiae, UniProt P32829 1-692; P12753 1-1312; P33301 1-854); assay: pull-down; MBP-tagged Sae2 on amylose resin (mock-treated or λ phosphatase-treated on the resin), 5 μg recombinant MRX, 1 h at 4 °C; wash 50 mM Tris-HCl pH 7.5, 2 mM EDTA, 80 mM NaCl, 0.2% NP40; eluted with 20 mM maltose; silver staining; details: both partners purified
T2 construct: Mre11, S. cerevisiae; Rad50, S. cerevisiae; Xrs2, S. cerevisiae; also called MRX; MRX complex; copies: + +
T2 sequence (P32829 whole entry, chain 1 of 3): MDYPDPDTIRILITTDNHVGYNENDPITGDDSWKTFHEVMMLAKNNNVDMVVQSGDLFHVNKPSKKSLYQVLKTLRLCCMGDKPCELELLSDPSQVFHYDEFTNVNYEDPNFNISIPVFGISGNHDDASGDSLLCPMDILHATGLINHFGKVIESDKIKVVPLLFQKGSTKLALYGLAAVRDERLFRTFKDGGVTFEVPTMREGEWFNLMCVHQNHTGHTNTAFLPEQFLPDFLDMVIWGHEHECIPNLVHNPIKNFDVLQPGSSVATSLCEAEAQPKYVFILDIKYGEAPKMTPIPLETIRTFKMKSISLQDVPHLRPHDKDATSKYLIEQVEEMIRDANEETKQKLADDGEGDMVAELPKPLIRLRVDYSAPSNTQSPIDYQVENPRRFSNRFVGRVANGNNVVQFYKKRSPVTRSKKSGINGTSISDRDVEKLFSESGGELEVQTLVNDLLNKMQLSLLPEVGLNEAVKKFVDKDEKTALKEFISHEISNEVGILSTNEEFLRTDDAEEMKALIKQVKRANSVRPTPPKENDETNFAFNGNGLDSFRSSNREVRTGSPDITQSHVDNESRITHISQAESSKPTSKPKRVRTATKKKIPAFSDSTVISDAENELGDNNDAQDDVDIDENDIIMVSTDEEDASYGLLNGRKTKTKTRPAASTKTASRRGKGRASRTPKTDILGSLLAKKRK
T2 sequence (P12753 whole entry, chain 2 of 3): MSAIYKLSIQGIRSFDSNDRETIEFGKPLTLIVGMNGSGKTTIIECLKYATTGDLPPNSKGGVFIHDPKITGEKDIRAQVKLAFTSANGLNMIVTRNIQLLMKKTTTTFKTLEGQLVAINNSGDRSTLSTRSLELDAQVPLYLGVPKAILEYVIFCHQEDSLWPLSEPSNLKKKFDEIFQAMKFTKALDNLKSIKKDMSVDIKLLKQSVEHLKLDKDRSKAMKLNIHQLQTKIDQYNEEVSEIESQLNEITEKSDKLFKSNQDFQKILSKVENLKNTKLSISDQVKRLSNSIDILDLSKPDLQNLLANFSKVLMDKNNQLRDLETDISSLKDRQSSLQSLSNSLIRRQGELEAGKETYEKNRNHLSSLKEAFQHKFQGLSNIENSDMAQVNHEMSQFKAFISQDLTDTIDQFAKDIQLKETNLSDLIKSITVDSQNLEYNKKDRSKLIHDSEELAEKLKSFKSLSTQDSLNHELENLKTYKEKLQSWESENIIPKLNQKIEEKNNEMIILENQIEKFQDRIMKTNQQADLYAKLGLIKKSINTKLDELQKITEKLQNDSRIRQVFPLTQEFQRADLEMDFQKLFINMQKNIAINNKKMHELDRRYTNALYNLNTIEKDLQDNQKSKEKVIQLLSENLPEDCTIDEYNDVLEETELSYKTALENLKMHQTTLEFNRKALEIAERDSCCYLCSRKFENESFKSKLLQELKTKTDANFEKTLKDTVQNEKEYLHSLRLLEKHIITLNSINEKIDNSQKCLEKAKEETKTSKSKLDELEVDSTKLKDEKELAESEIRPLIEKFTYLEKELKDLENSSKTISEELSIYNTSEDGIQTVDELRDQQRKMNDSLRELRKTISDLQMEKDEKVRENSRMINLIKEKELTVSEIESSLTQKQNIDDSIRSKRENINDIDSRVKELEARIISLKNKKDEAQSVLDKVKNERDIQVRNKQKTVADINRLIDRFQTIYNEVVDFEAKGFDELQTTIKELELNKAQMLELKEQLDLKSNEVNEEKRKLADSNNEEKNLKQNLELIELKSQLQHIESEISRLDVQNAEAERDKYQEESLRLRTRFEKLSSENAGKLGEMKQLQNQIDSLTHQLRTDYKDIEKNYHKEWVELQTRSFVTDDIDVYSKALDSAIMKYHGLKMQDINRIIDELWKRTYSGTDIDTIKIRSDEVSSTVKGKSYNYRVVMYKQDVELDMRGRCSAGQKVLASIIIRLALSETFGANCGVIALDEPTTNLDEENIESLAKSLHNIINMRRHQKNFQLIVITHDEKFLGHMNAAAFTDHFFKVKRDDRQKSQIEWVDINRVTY
T2 sequence (P33301 whole entry, chain 3 of 3): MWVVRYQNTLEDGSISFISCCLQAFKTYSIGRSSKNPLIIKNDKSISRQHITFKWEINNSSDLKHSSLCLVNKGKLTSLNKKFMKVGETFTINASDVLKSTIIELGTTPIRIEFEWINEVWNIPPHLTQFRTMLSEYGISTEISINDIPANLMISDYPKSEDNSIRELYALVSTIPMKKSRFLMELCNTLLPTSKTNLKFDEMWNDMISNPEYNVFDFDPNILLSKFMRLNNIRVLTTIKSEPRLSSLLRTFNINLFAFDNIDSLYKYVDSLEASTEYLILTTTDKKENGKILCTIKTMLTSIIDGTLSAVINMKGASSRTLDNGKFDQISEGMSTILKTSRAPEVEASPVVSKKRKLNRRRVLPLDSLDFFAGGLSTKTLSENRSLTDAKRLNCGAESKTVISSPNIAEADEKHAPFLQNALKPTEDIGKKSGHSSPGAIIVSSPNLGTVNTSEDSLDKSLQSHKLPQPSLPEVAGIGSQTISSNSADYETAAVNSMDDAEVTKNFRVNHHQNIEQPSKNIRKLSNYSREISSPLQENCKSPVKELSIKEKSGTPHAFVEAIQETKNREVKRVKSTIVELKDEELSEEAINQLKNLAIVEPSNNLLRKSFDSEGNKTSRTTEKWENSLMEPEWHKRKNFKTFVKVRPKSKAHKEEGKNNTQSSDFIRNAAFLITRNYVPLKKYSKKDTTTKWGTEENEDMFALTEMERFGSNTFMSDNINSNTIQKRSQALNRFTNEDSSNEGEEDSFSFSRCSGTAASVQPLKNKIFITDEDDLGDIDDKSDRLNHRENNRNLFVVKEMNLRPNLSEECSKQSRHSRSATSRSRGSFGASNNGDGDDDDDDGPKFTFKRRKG

[3] = target: the molecule itself; assay: atomic force microscopy (particle volume analysis); 50 nM pSae2 in 40 mM Hepes pH 7, 5 mM MgCl2, 25 mM NaCl, 0.1 mM TCEP deposited on mica, imaged in air, without DNA; molecular weight from a published standard curve
[4] = target: T1, pSae2 λ (dephosphorylated); assay: EMSA; lambda phosphatase-treated; 2 mM Mg2+; 25 mM Tris-acetate pH 7.5, 1 mM DTT, 2 mM Mg acetate, 0.1 mg/ml BSA, 1 nM DNA, 30 C; 1 mM ATP with MRX; 30 nM streptavidin where indicated; native PAGE in TBE; details: protein: recombinant; tags: C-terminal His; N-terminal MBP cleaved with PreScission; label: 3' 32P-cordycepin; blunt before 3' labeling

Row | Binder | binding result [1] | further results
1 | pSae2 S267A, expressed in the presence of phosphatase inhibitors (natural protein, S. cerevisiae, UniProt P46946 1-345, looked up, phosphorylated (prepared with phosphatase inhibitors; sites not listed), Sae2, S. cerevisiae, point mutant made in the pFB-MBP-Sae2-his plasmid; not shown: MBP, N-terminal, cleaved) MVTGEENVYLKSSLSILKELSLDELLNVQYDVTTLIAKRVQALQNRNKCVLEEPNSKLAEILCHEKNAPQQSSQTSAGPGEQDSEDFILTQFDEDIKKESAEVHYRNENKHTVQLPLVTMPPNRHKRKISEFSSPLNGLNNLSDLEDCSDTVIHEKDNDKENKTRKLLGIELENPESTSPNLYKNVKDNFLFDFNTNPLTKRAWILEDFRPNEDIAPVKRGRRKLERFYAQVGKPEDSKHRSLSVVIESQNSDYEFAFDNLRNRSKAPPGFGRLDFPSTQEGNEDKKKSQEIIRRKTKYRFLMASNNKIPPYEREYVFKREQLNQIVDDGCFFWSDKLLQIYARC | binds | –
2 | pSae2 S267E dephosphorylated with λ phosphatase (natural protein, S. cerevisiae, UniProt P46946 1-345, looked up, dephosphorylated with λ phosphatase, Sae2, S. cerevisiae, full-length polypeptide with S267E; also called pSae2 S267E λ; not shown: MBP, N-terminal, cleaved) MVTGEENVYLKSSLSILKELSLDELLNVQYDVTTLIAKRVQALQNRNKCVLEEPNSKLAEILCHEKNAPQQSSQTSAGPGEQDSEDFILTQFDEDIKKESAEVHYRNENKHTVQLPLVTMPPNRHKRKISEFSSPLNGLNNLSDLEDCSDTVIHEKDNDKENKTRKLLGIELENPESTSPNLYKNVKDNFLFDFNTNPLTKRAWILEDFRPNEDIAPVKRGRRKLERFYAQVGKPEDSKHRSLSVVIESQNSDYEFAFDNLRNRSKEPPGFGRLDFPSTQEGNEDKKKSQEIIRRKTKYRFLMASNNKIPPYEREYVFKREQLNQIVDDGCFFWSDKLLQIYARC | binds | –
3 | full-length phosphorylated recombinant MBP-tagged pSae2 (mock-treated), on amylose resin (natural protein, S. cerevisiae, UniProt P46946 1-345, looked up, phosphorylated (phosphatase inhibitors; mock-treated); sites not listed, Sae2, S. cerevisiae, full-length polypeptide; The MBP tag was cleaved off only after elution of the complexes; also called MBP-tagged Sae2; MBP-Sae2-His; not shown: MBP, N-terminal, kept) MVTGEENVYLKSSLSILKELSLDELLNVQYDVTTLIAKRVQALQNRNKCVLEEPNSKLAEILCHEKNAPQQSSQTSAGPGEQDSEDFILTQFDEDIKKESAEVHYRNENKHTVQLPLVTMPPNRHKRKISEFSSPLNGLNNLSDLEDCSDTVIHEKDNDKENKTRKLLGIELENPESTSPNLYKNVKDNFLFDFNTNPLTKRAWILEDFRPNEDIAPVKRGRRKLERFYAQVGKPEDSKHRSLSVVIESQNSDYEFAFDNLRNRSKSPPGFGRLDFPSTQEGNEDKKKSQEIIRRKTKYRFLMASNNKIPPYEREYVFKREQLNQIVDDGCFFWSDKLLQIYARC | – | binding result [2]: binds
4 | full-length recombinant MBP-tagged Sae2 dephosphorylated with λ phosphatase on amylose resin (natural protein, S. cerevisiae, UniProt P46946 1-345, looked up, dephosphorylated with λ phosphatase on the resin, Sae2, S. cerevisiae, full-length polypeptide; also called non-phosphorylated MBP-tagged Sae2; not shown: MBP, N-terminal, kept) MVTGEENVYLKSSLSILKELSLDELLNVQYDVTTLIAKRVQALQNRNKCVLEEPNSKLAEILCHEKNAPQQSSQTSAGPGEQDSEDFILTQFDEDIKKESAEVHYRNENKHTVQLPLVTMPPNRHKRKISEFSSPLNGLNNLSDLEDCSDTVIHEKDNDKENKTRKLLGIELENPESTSPNLYKNVKDNFLFDFNTNPLTKRAWILEDFRPNEDIAPVKRGRRKLERFYAQVGKPEDSKHRSLSVVIESQNSDYEFAFDNLRNRSKSPPGFGRLDFPSTQEGNEDKKKSQEIIRRKTKYRFLMASNNKIPPYEREYVFKREQLNQIVDDGCFFWSDKLLQIYARC | – | binding result [2]: binds
5 | hyperphosphorylated recombinant Sae2 (pSae2), expressed and purified with phosphatase inhibitors (natural protein, S. cerevisiae, UniProt P46946 1-345, looked up, hyperphosphorylated (phosphatase inhibitors in culture and lysis buffer); estimate of 17 phosphorylation sites; sites not listed in the text, Sae2, S. cerevisiae, full-length polypeptide (ends at residue 345 by the legend's 170-345); Tetramer by AFM volume analysis; also called phosphorylated Sae2; wt pSae2; not shown: MBP, N-terminal, cleaved) MVTGEENVYLKSSLSILKELSLDELLNVQYDVTTLIAKRVQALQNRNKCVLEEPNSKLAEILCHEKNAPQQSSQTSAGPGEQDSEDFILTQFDEDIKKESAEVHYRNENKHTVQLPLVTMPPNRHKRKISEFSSPLNGLNNLSDLEDCSDTVIHEKDNDKENKTRKLLGIELENPESTSPNLYKNVKDNFLFDFNTNPLTKRAWILEDFRPNEDIAPVKRGRRKLERFYAQVGKPEDSKHRSLSVVIESQNSDYEFAFDNLRNRSKSPPGFGRLDFPSTQEGNEDKKKSQEIIRRKTKYRFLMASNNKIPPYEREYVFKREQLNQIVDDGCFFWSDKLLQIYARC | – | stoichiometry N [3]: 4
6 | pSae2 ΔC95, lacking 95 C-terminal residues (domain or fragment, S. cerevisiae, UniProt P46946 1-250, looked up, phosphorylated (named pSae2; sites not listed), Sae2, S. cerevisiae, lacking the 95 C-terminal residues; source: Sf9, purified as pSae2; not shown: MBP, N-terminal, cleaved) MVTGEENVYLKSSLSILKELSLDELLNVQYDVTTLIAKRVQALQNRNKCVLEEPNSKLAEILCHEKNAPQQSSQTSAGPGEQDSEDFILTQFDEDIKKESAEVHYRNENKHTVQLPLVTMPPNRHKRKISEFSSPLNGLNNLSDLEDCSDTVIHEKDNDKENKTRKLLGIELENPESTSPNLYKNVKDNFLFDFNTNPLTKRAWILEDFRPNEDIAPVKRGRRKLERFYAQVGKPEDSKHRSLSVVIESQ | binds | –
7 | pSae2 S267E phosphomimicking variant, expressed in the presence of phosphatase inhibitors (natural protein, S. cerevisiae, UniProt P46946 1-345, looked up, phosphorylated (prepared with phosphatase inhibitors; sites not listed), Sae2, S. cerevisiae, full-length polypeptide with S267E; not shown: MBP, N-terminal, cleaved) MVTGEENVYLKSSLSILKELSLDELLNVQYDVTTLIAKRVQALQNRNKCVLEEPNSKLAEILCHEKNAPQQSSQTSAGPGEQDSEDFILTQFDEDIKKESAEVHYRNENKHTVQLPLVTMPPNRHKRKISEFSSPLNGLNNLSDLEDCSDTVIHEKDNDKENKTRKLLGIELENPESTSPNLYKNVKDNFLFDFNTNPLTKRAWILEDFRPNEDIAPVKRGRRKLERFYAQVGKPEDSKHRSLSVVIESQNSDYEFAFDNLRNRSKEPPGFGRLDFPSTQEGNEDKKKSQEIIRRKTKYRFLMASNNKIPPYEREYVFKREQLNQIVDDGCFFWSDKLLQIYARC | binds | –
8 | 100 bp dsDNA (Bio100/Bio100c) (dsDNA, internal biotin-T in Bio100 (bold T; exact position not visible in the text)) DNA 1: GTAAGTGCCGCGGTGCGGGTGCCAGGGCGTGCCCTTGGGCTCCCCGGGCGCGTACTCCACCTCATAATCTTCTGCCATGGTCGTAGCAGCCTCCTGCATC DNA 2: GATGCAGGAGGCTGCTACGACCATGGCAGAAGATTATGAGGTGGAGTACGCGCCCGGGGAGCCCAAGGGCACGCCCTGGCACCCGCACCGCGGCACTTAC | – | binding result [4]: binds
